One assay has as its system hPPARg1 promoter. Description: NHR-promoter luciferase screen, hPPARg1 promoter. Type of assay: cell-based, human. The following applies: for Luc. act., normalized to lacZ / Normalized Luc. act., normalized to control: PPARG1 promoter, hormone receptor with or without its ligand; for Normalized Luc. act., normalized to control: relative to control; for Results of assays of transcription factor (+/- ligand) with hPPARg1: Table 6d, luciferase activity relative to control (control = 1.00). The procedure:
(§1) The use, feasibility, and reproducibility of the functional NHR-promoter screen in a 48-well format have been tested validated. Briefly, there were co-expressed 50 ng of each NHR/NHR homodimer or NHR/RXR heterodimer with 100 ng promoter/luciferase construct and 50 ng of LacZ (as a control for transfection efficiency) in CV-1 cells using Fugene HD (Roche) as a transfection reagent (alternatively or additionally, a CMV-YFP construct can be used as a transfection control). Each of the nuclear hormone receptors that were used in these experiments was cloned into a pcDNA3.1 vector and comprised a C-terminally linked V5H6 tag. Twenty-four hours after transfection, appropriate ligands were added, where applicable, (see Table 5 for various ligands and concentrations and after 48 hrs, samples were assayed for luciferase and LacZ activity. To measure for luciferase activity 15 ul of sample was added to 30 ul of luciferase buffer (20 mM tricine, 1.07 mM MgCarbonate, 2.67 mM MgSulfate, 0.1 mM Naz-EDTA, 5 mM DTT, 5 mM ATP, 0.15 mg/ml CoA, 0.5 mM Luciferin), mixed briefly, and run in a Perkin Elmer Victor 5 luminometer. Thus, the functional NHR-promoter screen was used to observe the transcriptional activity of 29 promoters from various physiological pathways including inflammation, lipid and sugar metabolism, cholesterol transport, xenobiotic metabolism, and circadian rhythm.
(§2) The promoters that facilitate transcription of the indicated gene products that were tested using the protocols described herein are listed in the first row of the table. The nuclear hormone receptors and, where applicable, ligands that were assayed for their transcriptional effects on the promoters are listed in the first column of the table. The data represent the luciferase activity of each sample normalized to both the lacZ activity of that sample and to a control, e.g., no NHR or ligand, as customary in the art. As described previously, these normalizations allow the transcriptional activity of each reporter cell to be compared to other samples.
(§3) Tables 7-40 show the transcriptional effects of the hormone receptors, and, where applicable, ligands (orphan receptors are screened without ligand), on each individual promoter. […] The control data of each table are shown in their last rows.

The test system of a further assay is mLeptin promoter. Description: NHR-promoter luciferase screen, mLeptin promoter. Particulars: for Luc. act., normalized to lacZ / Normalized Luc. act., normalized to control: Table 7, mLeptin; for Results of assays of transcription factor (+/- ligand) with mLeptin: Table 6d, luciferase activity relative to control (control = 1.00). The format is cell-based, mouse. The procedure:
as §1, §2, §3

Another assay deals with mPer1 promoter. Description: NHR-promoter luciferase screen, mPer1 promoter. Type of assay: cell-based, mouse. The following applies: for Luc. act., normalized to lacZ / Normalized Luc. act., normalized to control: Per1 promoter reporter, co-transfected HR, with or without its ligand; for Normalized Luc. act., normalized to control: relative to control; for luciferase activity normalized to lacZ activity and to a control, mPer1: mPer1 promoter-luciferase, CV-1 cells, NHR +/- ligand, control = 1.00. The procedure: as §1, §2, §3

In another assay the test system is hPPARg2 promoter. Description: NHR-promoter luciferase screen, hPPARg2 promoter. The format is cell-based, human. The following applies: for Luc. act., normalized to lacZ / Normalized Luc. act., normalized to control: PPARG2 promoter, hormone receptor with or without its ligand; for Normalized Luc. act., normalized to control: relative to control; for Results of assays of transcription factor (+/- ligand) with hPPARg2: Table 6d, luciferase activity relative to control (control = 1.00). The procedure:
as §1, §2, §3

A further assay has as its system mNPY promoter. Description: NHR-promoter luciferase screen, mNPY promoter. The format is cell-based, mouse. Particulars: for Results of assays of transcription factor (+/- ligand) with mNPY: Table 6d, luciferase activity relative to control (control = 1.00); for Luc. act., normalized to lacZ / Normalized Luc. act., normalized to control: mNPY promoter, HR component with or without ligand; for Normalized Luc. act., normalized to control: relative to control. The procedure:
as §1, §2, §3

B1: RORg: RAR-related Orphan Receptor γ (NR1F3), cDNA driver (protein, UniProt P51449 1-518, looked up)
Nuclear receptor ROR-gamma: MDRAPQRQHRASRELLAAKKTHTSQIEVIPCKICGDKSSGIHYGVITCEGCKGFFRRSQRCNAAYSCTRQQNCPIDRTSRNRCQHCRLQKCLALGMSRDAVKFGRMSKKQRDSLHAEVQKQLQQRQQQQQEPVVKTPPAGAQGADTLTYTLGLPDGQLPLGSSPDLPEASACPPGLLKASGSGPSYSNNLAKAGLNGASCHLEYSPERGKAEGRESFYSTGSQLTPDRCGLRFEEHRHPGLGELGQGPDSYGSPSFRSTPEAPYASLTEIEHLVQSVCKSYRETCQLRLEDLLRQRSNIFSREEVTGYQRKSMWEMWERCAHHLTEAIQYVVEFAKRLSGFMELCQNDQIVLLKAGAMEVVLVRMCRAYNADNRTVFFEGKYGGMELFRALGCSELISSIFDFSHSLSALHFSEDEIALYTALVLINAHRPGLQEKRKVEQLQYNLELAFHHHLCKTHRQSILAKLPPKGKLRSLCSQHVERLQIFQHLHPIVVQAAFPPLYKELFSTETESPVGLSK
For B1, in the assay on hPPARg1 promoter, the “Luc. act., normalized to lacZ” value is reported as 81.5; the “Normalized Luc. act., normalized to control” value turned out to be 1.2; the “Results of assays of transcription factor (+/- ligand) with hPPARg1” value (“Results of assays … with hPPARg1” below) came to 1.18. In the assay with mLeptin promoter, the “Luc. act., normalized to lacZ” value is given as 2.6; the “Normalized Luc. act., normalized to control” value is on record as 0.9; the “Results of assays of transcription factor (+/- ligand) with mLeptin” value (from here on “Results of assays … with mLeptin”) is listed as 0.87. Moreover, in the assay with mPer1 promoter, the “Luc. act., normalized to lacZ” value came out at 176.3; the “Normalized Luc. act., normalized to control” value is listed as 1.2; the “luciferase activity normalized to lacZ activity and to a control, mPer1” value (shortened to “luciferase activity normalized”) came out at 1.22. Further, in the assay with hPPARg2 promoter, the “Luc. act., normalized to lacZ” value came to 19.2; the “Normalized Luc. act., normalized to control” value turned out to be 9.6; the “Results of assays of transcription factor (+/- ligand) with hPPARg2” value (“Results of assays … with hPPARg2” below) was determined as 9.59. For the same molecule, in the assay on mNPY promoter, the “Results of assays of transcription factor (+/- ligand) with mNPY” value (from here on “Results of assays … with mNPY”) is given as 0.91; the “Luc. act., normalized to lacZ” value is listed as 76.5; the “Normalized Luc. act., normalized to control” value is reported as 0.9.

B2: RVRa: Rev-Erb α (NR1D1), cDNA driver (protein, UniProt P20393 1-614, looked up)
Nuclear receptor subfamily 1 …: MTTLDSNNNTGGVITYIGSSGSSPSRTSPESLYSDNSNGSFQSLTQGCPTYFPPSPTGSLTQDPARSFGSIPPSLSDDGSPSSSSSSSSSSSSFYNGSPPGSLQVAMEDSSRVSPSKSTSNITKLNGMVLLCKVCGDVASGFHYGVHACEGCKGFFRRSIQQNIQYKRCLKNENCSIVRINRNRCQQCRFKKCLSVGMSRDAVRFGRIPKREKQRMLAEMQSAMNLANNQLSSQCPLETSPTQHPTPGPMGPSPPPAPVPSPLVGFSQFPQQLTPPRSPSPEPTVEDVISQVARAHREIFTYAHDKLGSSPGNFNANHASGSPPATTPHRWENQGCPPAPNDNNTLAAQRHNEALNGLRQAPSSYPPTWPPGPAHHSCHQSNSNGHRLCPTHVYAAPEGKAPANSPRQGNSKNVLLACPMNMYPHGRSGRTVQEIWEDFSMSFTPAVREVVEFAKHIPGFRDLSQHDQVTLLKAGTFEVLMVRFASLFNVKDQTVMFLSRTTYSLQELGAMGMGDLLSAMFDFSEKLNSLALTEEELGLFTAVVLVSADRSGMENSASVEQLQETLLRALRALVLKNRPLETSRFTKLLLKLPDLRTLNNMHSEKLLSFRVDAQ
For the molecule B2, in the assay with hPPARg1 promoter, the “Luc. act., normalized to lacZ” value was 45.9; the “Normalized Luc. act., normalized to control” value is on record as 0.7; the “Results of assays … with hPPARg1” value was 0.67. In the assay on mLeptin promoter, the “Luc. act., normalized to lacZ” value came out at 2.5; the “Normalized Luc. act., normalized to control” value is on record as 0.9; the “Results of assays … with mLeptin” value was determined as 0.86. In the assay with mPer1 promoter, the “Luc. act., normalized to lacZ” value is on record as 98.6; the “Normalized Luc. act., normalized to control” value was 0.7; the “luciferase activity normalized” value was found to be 0.68. Further, in the assay on hPPARg2 promoter, the “Luc. act., normalized to lacZ” value worked out at 1.5; the “Normalized Luc. act., normalized to control” value is listed as 0.8; the “Results of assays … with hPPARg2” value is on record as 0.76. In the assay on mNPY promoter, the “Results of assays … with mNPY” value stood at 1.09; the “Luc. act., normalized to lacZ” value was 91.9; the “Normalized Luc. act., normalized to control” value came to 1.1.

B3: RORa: RAR-related Orphan Receptor α (NR1F1), cDNA driver (protein, UniProt P35398 1-523, looked up)
Nuclear receptor ROR-alpha: MESAPAAPDPAASEPGSSGADAAAGSRETPLNQESARKSEPPAPVRRQSYSSTSRGISVTKKTHTSQIEIIPCKICGDKSSGIHYGVITCEGCKGFFRRSQQSNATYSCPRQKNCLIDRTSRNRCQHCRLQKCLAVGMSRDAVKFGRMSKKQRDSLYAEVQKHRMQQQQRDHQQQPGEAEPLTPTYNISANGLTELHDDLSNYIDGHTPEGSKADSAVSSFYLDIQPSPDQSGLDINGIKPEPICDYTPASGFFPYCSFTNGETSPTVSMAELEHLAQNISKSHLETCQYLREELQQITWQTFLQEEIENYQNKQREVMWQLCAIKITEAIQYVVEFAKRIDGFMELCQNDQIVLLKAGSLEVVFIRMCRAFDSQNNTVYFDGKYASPDVFKSLGCEDFISFVFEFGKSLCSMHLTEDEIALFSAFVLMSADRSWLQEKVKIEKLQQKIQLALQHVLQKNHREDGILTKLICKVSTLRALCGRHTEKLMAFKAIYPDIVRLHFPPLYKELFTSEFEPAMQIDG
Regarding B3, in the assay with hPPARg1 promoter, the “Luc. act., normalized to lacZ” value is 74.0; the “Normalized Luc. act., normalized to control” value worked out at 1.1; the “Results of assays … with hPPARg1” value is reported as 1.07. In addition, in the assay on mLeptin promoter, the “Luc. act., normalized to lacZ” value was found to be 2.1; the “Normalized Luc. act., normalized to control” value is recorded as 0.7; the “Results of assays … with mLeptin” value was 0.71. Also, in the assay with mPer1 promoter, the “Luc. act., normalized to lacZ” value was determined as 107.9; the “Normalized Luc. act., normalized to control” value stood at 0.7; the “luciferase activity normalized” value is given as 0.75. In the assay with hPPARg2 promoter, the “Luc. act., normalized to lacZ” value amounted to 8.4; the “Normalized Luc. act., normalized to control” value came to 4.2; the “Results of assays … with hPPARg2” value is given as 4.19. In addition, in the assay on mNPY promoter, the “Results of assays … with mNPY” value is given as 0.90; the “Luc. act., normalized to lacZ” value is 75.4; the “Normalized Luc. act., normalized to control” value is on record as 0.9.

B4: LXRb: Liver X Receptor β (NR1H2), cDNA driver (protein, UniProt P55055 1-460, looked up)
Oxysterols receptor LXR-beta: MSSPTTSSLDTPLPGNGPPQPGAPSSSPTVKEEGPEPWPGGPDPDVPGTDEASSACSTDWVIPDPEEEPERKRKKGPAPKMLGHELCRVCGDKASGFHYNVLSCEGCKGFFRRSVVRGGARRYACRGGGTCQMDAFMRRKCQQCRLRKCKEAGMREQCVLSEEQIRKKKIRKQQQESQSQSQSPVGPQGSSSSASGPGASPGGSEAGSQGSGEGEGVQLTAAQELMIQQLVAAQLQCNKRSFSDQPKVTPWPLGADPQSRDARQQRFAHFTELAIISVQEIVDFAKQVPGFLQLGREDQIALLKASTIEIMLLETARRYNHETECITFLKDFTYSKDDFHRAGLQVEFINPIFEFSRAMRRLGLDDAEYALLIAINIFSADRPNVQEPGRVEALQQPYVEALLSYTRIKRPQDQLRFPRMLMKLVSLRTLSSVHSEQVFALRLQDKKLPPLLSEIWDVHE
In the case of B4, in the assay with hPPARg1 promoter, the “Luc. act., normalized to lacZ” value was 37.9; the “Normalized Luc. act., normalized to control” value stood at 0.5; the “Results of assays … with hPPARg1” value was found to be 0.55. Also, in the assay on mLeptin promoter, the “Luc. act., normalized to lacZ” value is 2.4; the “Normalized Luc. act., normalized to control” value was found to be 0.8; the “Results of assays … with mLeptin” value turned out to be 0.81. Further, in the assay with mPer1 promoter, the “Luc. act., normalized to lacZ” value came to 117.6; the “Normalized Luc. act., normalized to control” value was found to be 0.8; the “luciferase activity normalized” value amounted to 0.82. Besides, in the assay with hPPARg2 promoter, the “Luc. act., normalized to lacZ” value came out at 2.4; the “Normalized Luc. act., normalized to control” value came out at 1.2; the “Results of assays … with hPPARg2” value is listed as 1.19. In the assay on mNPY promoter, the “Results of assays … with mNPY” value was 0.81; the “Luc. act., normalized to lacZ” value was determined as 68.0; the “Normalized Luc. act., normalized to control” value is 0.8.

The values above are taken from patent US20110263454A1, “Methods of Identifying Functional Characteristics of Promoters, Transcription Modifying Proteins and Transcription Modulating Agents” (Salk Institute for Biological Studies, priority 2008, published 2011).
